Data taken from paper PMC10397247.

Experiments:
4H568-bH = biological target: T1, 4H568-bH; assay: two-hybrid library CCNG1;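 also: natural log of median RNA to DNA barcode read ratio; higher means stronger binding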
T1 chain: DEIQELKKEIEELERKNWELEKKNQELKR

4H918-bH = biological target: T2, 4H918-bH; assay: two-hybrid library CCNG1;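 also: natural log of median RNA to DNA barcode read ratio; higher means stronger binding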
T2 chain: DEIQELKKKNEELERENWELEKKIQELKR

4H2610-bH = biological target: T3, 4H2610-bH; assay: two-hybrid library CCNG1;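 also: natural log of median RNA to DNA barcode read ratio; higher means stronger binding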
T3 chain: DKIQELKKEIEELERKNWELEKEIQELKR

4H1328-bH = biological target: T4, 4H1328-bH; assay: two-hybrid library CCNG1;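 also: natural log of median RNA to DNA barcode read ratio; higher means stronger binding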
T4 chain: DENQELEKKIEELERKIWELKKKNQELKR

4H883-bH = biological target: T5, 4H883-bH; assay: two-hybrid library CCNG1;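 also: natural log of median RNA to DNA barcode read ratio; higher means stronger binding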
T5 chain: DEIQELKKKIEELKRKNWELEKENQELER

4H2667-bH = biological target: T6, 4H2667-bH; assay: two-hybrid library CCNG1;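 also: natural log of median RNA to DNA barcode read ratio; higher means stronger binding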
T6 chain: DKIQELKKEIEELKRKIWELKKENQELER

4H953-bH = biological target: T7, 4H953-bH; assay: two-hybrid library CCNG1
T7 chain: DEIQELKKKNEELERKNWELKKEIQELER

4H1845-bH = biological target: T8, 4H1845-bH; assay: two-hybrid library CCNG1
T8 chain: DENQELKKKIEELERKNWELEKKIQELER

4H3592-bH = biological target: T9, 4H3592-bH; assay: two-hybrid library CCNG1
T9 chain: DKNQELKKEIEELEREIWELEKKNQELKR

4H687-bH = biological target: T10, 4H687-bH; assay: two-hybrid library CCNG1
T10 chain: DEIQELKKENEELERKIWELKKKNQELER

4H1446-bH = biological target: T11, 4H1446-bH; assay: two-hybrid library CCNG1
T11 chain: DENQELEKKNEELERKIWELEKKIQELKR

4H2576-bH = biological target: T12, 4H2576-bH; assay: two-hybrid library CCNG1
T12 chain: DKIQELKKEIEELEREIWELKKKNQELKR

P8A-bS = biological target: T13, P8A-bS; assay: two-hybrid library CCNG1
T13 chain: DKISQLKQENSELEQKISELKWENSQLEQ

4H3189-bH = biological target: T14, 4H3189-bH; assay: two-hybrid library CCNG1
T14 chain: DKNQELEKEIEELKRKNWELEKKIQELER

4H1193-bH = biological target: T15, 4H1193-bH; assay: two-hybrid library CCNG1
T15 chain: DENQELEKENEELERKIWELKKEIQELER

4H3601-bH = biological target: T16, 4H3601-bH; assay: two-hybrid library CCNG1
T16 chain: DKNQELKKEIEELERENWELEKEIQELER

4H797-bH = biological target: T17, 4H797-bH; assay: two-hybrid library CCNG1
T17 chain: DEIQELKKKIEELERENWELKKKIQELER

4H1369-bH = biological target: T18, 4H1369-bH; assay: two-hybrid library CCNG1
T18 chain: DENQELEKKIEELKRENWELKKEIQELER

4H331-bH = biological target: T19, 4H331-bH; assay: two-hybrid library CCNG1
T19 chain: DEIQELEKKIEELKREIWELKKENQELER

4H2697-bH = biological target: T20, 4H2697-bH; assay: two-hybrid library CCNG1
T20 chain: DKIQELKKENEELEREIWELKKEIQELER

4H462-bH = biological target: T21, 4H462-bH; assay: two-hybrid library CCNG1
T21 chain: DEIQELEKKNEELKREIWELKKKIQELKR

4H4001-bH = biological target: T22, 4H4001-bH; assay: two-hybrid library CCNG1
T22 chain: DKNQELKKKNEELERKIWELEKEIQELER

4H3782-bH = biological target: T23, 4H3782-bH; assay: two-hybrid library CCNG1
T23 chain: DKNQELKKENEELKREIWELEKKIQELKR

4H967-bH = biological target: T24, 4H967-bH; assay: two-hybrid library CCNG1
T24 chain: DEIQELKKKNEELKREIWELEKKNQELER

4H3907-bH = biological target: T25, 4H3907-bH; assay: two-hybrid library CCNG1
T25 chain: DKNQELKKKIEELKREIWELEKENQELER

4H3843-bH = biological target: T26, 4H3843-bH; assay: two-hybrid library CCNG1
T26 chain: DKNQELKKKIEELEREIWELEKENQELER

4H4038-bH = biological target: T27, 4H4038-bH; assay: two-hybrid library CCNG1
T27 chain: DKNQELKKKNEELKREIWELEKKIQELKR

4H3606-bH = biological target: T28, 4H3606-bH; assay: two-hybrid library CCNG1
T28 chain: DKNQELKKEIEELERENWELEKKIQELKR

4H370-bH = biological target: T29, 4H370-bH; assay: two-hybrid library CCNG1
T29 chain: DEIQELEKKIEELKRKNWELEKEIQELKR

4H72-bH = biological target: T30, 4H72-bH; assay: two-hybrid library CCNG1
T30 chain: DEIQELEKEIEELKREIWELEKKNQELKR

4H1406-bH = biological target: T31, 4H1406-bH; assay: two-hybrid library CCNG1
T31 chain: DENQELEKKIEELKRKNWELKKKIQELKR

4H1387-bH = biological target: T32, 4H1387-bH; assay: two-hybrid library CCNG1
T32 chain: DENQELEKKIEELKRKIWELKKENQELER

4H607-bH = biological target: T33, 4H607-bH; assay: two-hybrid library CCNG1
T33 chain: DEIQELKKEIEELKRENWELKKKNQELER

4H3855-bH = biological target: T34, 4H3855-bH; assay: two-hybrid library CCNG1
T34 chain: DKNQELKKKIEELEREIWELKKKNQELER

4H717-bH = biological target: T35, 4H717-bH; assay: two-hybrid library CCNG1
T35 chain: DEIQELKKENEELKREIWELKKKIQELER

4H3354-bH = biological target: T36, 4H3354-bH; assay: two-hybrid library CCNG1
T36 chain: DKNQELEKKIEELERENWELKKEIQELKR

4H3381-bN = biological target: T37, 4H3381-bN; assay: two-hybrid library CCNG1
T37 chain: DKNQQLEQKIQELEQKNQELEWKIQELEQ

4H3185-bH = biological target: T38, 4H3185-bH; assay: two-hybrid library CCNG1
T38 chain: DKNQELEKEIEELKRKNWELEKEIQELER

4H2442-bH = biological target: T39, 4H2442-bH; assay: two-hybrid library CCNG1
T39 chain: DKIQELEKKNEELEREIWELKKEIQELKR

4H2729-bH = biological target: T40, 4H2729-bH; assay: two-hybrid library CCNG1
T40 chain: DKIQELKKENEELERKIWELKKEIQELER

4H1828-bH = biological target: T41, 4H1828-bH; assay: two-hybrid library CCNG1
T41 chain: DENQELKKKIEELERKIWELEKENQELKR

4H908-bH = biological target: T42, 4H908-bH; assay: two-hybrid library CCNG1
T42 chain: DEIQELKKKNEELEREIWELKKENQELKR

4H3427-bH = biological target: T43, 4H3427-bH; assay: two-hybrid library CCNG1
T43 chain: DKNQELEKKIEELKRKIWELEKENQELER

4H754-bH = biological target: T44, 4H754-bH; assay: two-hybrid library CCNG1
T44 chain: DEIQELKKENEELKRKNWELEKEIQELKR

4H338-bH = biological target: T45, 4H338-bH; assay: two-hybrid library CCNG1
T45 chain: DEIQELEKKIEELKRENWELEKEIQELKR

4H2618-bH = biological target: T46, 4H2618-bH; assay: two-hybrid library CCNG1
T46 chain: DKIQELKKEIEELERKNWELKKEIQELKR

4H3112-bH = biological target: T47, 4H3112-bH; assay: two-hybrid library CCNG1
T47 chain: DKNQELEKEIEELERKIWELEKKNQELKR

4H454-bH = biological target: T48, 4H454-bH; assay: two-hybrid library CCNG1
T48 chain: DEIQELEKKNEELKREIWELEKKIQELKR

4H1257-bH = biological target: T49, 4H1257-bH; assay: two-hybrid library CCNG1
T49 chain: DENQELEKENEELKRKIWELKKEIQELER

Core_ININ-es_KEEK = biological target: T50, Core_ININ-es_KEEK; assay: two-hybrid library CCmax; conditions: mean of both orientations
T50 chain: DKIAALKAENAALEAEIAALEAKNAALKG

DENQELEKENEELERKIWELKKEIQELER [4H1193-bH]
interaction score (4H568-bH): -0.254
interaction score (4H918-bH): -1.33
interaction score (4H2610-bH): -0.0229
interaction score (4H1328-bH): 0.732
interaction score (4H883-bH): -0.574
interaction score (4H2667-bH): -0.964
interaction score (4H953-bH): -1.33
interaction score (4H1845-bH): -0.0802
interaction score (4H3592-bH): 0.341
interaction score (4H687-bH): -0.482
interaction score (4H1446-bH): 0.131
interaction score (4H2576-bH): 1.19
interaction score (P8A-bS): 0.622
interaction score (4H3189-bH): -0.917
interaction score (4H1193-bH): -0.399
interaction score (4H3601-bH): 0
interaction score (4H797-bH): -0.528
interaction score (4H1369-bH): -0.969
interaction score (4H331-bH): -0.0475
interaction score (4H2697-bH): -0.317
interaction score (4H462-bH): -1.11
interaction score (4H4001-bH): 0.425
interaction score (4H3782-bH): 1.32
interaction score (4H967-bH): -0.174
interaction score (4H3907-bH): 0.0514
interaction score (4H3843-bH): 0.181
interaction score (4H4038-bH): 1.52
interaction score (4H3606-bH): -0.559
interaction score (4H370-bH): -0.564
interaction score (4H72-bH): -0.782
interaction score (4H1406-bH): -0.835
interaction score (4H1387-bH): -0.684
interaction score (4H607-bH): -1.7

DENQELEKENEELKRKIWELKKEIQELER [4H1257-bH]
interaction score (4H568-bH): -0.399
interaction score (4H918-bH): 0.00985
interaction score (4H883-bH): 0.223
interaction score (4H2667-bH): -0.837
interaction score (4H3855-bH): -0.288
interaction score (4H953-bH): -0.825
interaction score (4H717-bH): -0.541
interaction score (4H3354-bH): -0.79
interaction score (4H1845-bH): -1.83
interaction score (4H687-bH): 0.172
interaction score (4H1446-bH): -0.833
interaction score (4H3381-bN): -0.693
interaction score (4H2576-bH): 0.394
interaction score (4H3185-bH): -0.808
interaction score (4H2442-bH): -0.172
interaction score (4H2729-bH): 0.0373
interaction score (4H1828-bH): -0.108
interaction score (4H908-bH): -0.669
interaction score (4H3427-bH): 0.386
interaction score (4H797-bH): -0.73
interaction score (4H331-bH): -0.435
interaction score (4H754-bH): -0.282
interaction score (4H338-bH): -0.528
interaction score (4H4001-bH): -0.377
interaction score (4H3782-bH): 0.911
interaction score (4H967-bH): -1.63
interaction score (4H2618-bH): 0.0958
interaction score (4H3112-bH): -0.383
interaction score (4H454-bH): 1.26
interaction score (4H1257-bH): -1.44
interaction score (4H72-bH): -2.61
interaction score (4H607-bH): -0.218

DEIAALEAKNAALKAKIAALKAENAALEG [Core_ININ-es_EKKE]
interaction score (Core_ININ-es_KEEK): 2.15
